In experiment [1] the target is human carbonic anhydrase IX (CAIX) (human) (UniProt Q16790). Description: competition ELISA on coated CAIX; competitor: biotinylated chimeric Girentuximab IgG1. Background: An ELISA detects its analyte on a solid surface through an enzyme-linked reagent.
The target is the same in experiment [2]. Description: SPR (Biacore T200), multicycle kinetics; purified antibody captured on Protein G chip, CAIX as analyte.

Take “Chimeric Girentuximab (VH0/Vκ0) IgG4 (S228P, L235E) (antibody)”: the relative IC50 (IC50 of the variant divided by IC50 of the Girentuximab chimeric IgG1 antibody on the same plate) in experiment [1] was < 2 fold. The relative KD (KD of the variant divided by KD of the chimeric antibody on the same chip) in experiment [2] is < 2 fold.

For the origin of these results see US20220331457A1.
